The supplement of paper PMC9732359
± gives the uncertainty stated by the source.

Assay: protein stability index of a GFP-peptide fusion (yeast GPS) (PSI 1-4); higher = more stable; sorted into four equal gates, so the index is relative within each strain
In short: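 Tiled 17-residue peptides from yeast proteins were fused downstream of GFP on a plasmid that also expresses Cherry, and the pooled library was carried in yeast. Mid-log cultures grown in leucine-free medium were sorted into four equal gates by GFP/Cherry fluorescence ratio. Plasmids from each gate were PCR-amplified and Illumina-sequenced, and reads were assigned to strains by barcodes. Each peptide's protein stability index is the sum, over gates, of the gate's read frequency multiplied by its gate number.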

Sequence | protein stability index (doa10∆) | protein stability index (pdr5∆) | protein stability index (san1∆) | protein stability index (ubr1∆)
NYTQNIDNLESYAGIST [SIR2] | 2.92 ± 0.059 | 2.96 ± 0.09 | 2.87 ± 0.071 | 3.01 ± 0.044
VMRNTYNTRKNAVTAAA [GAL11] | 1.78 ± 0.045 | 1.94 ± 0.051 | 2.11 ± 0.07 | 1.97 ± 0.036
NLQREIDQAHVSEITKL [RPN14] | 2.61 ± 0.044 | 2.81 ± 0.058 | 2.75 ± 0.054 | 2.69 ± 0.05
MAFEASAAAAGNRNSSS [BRR2] | 3.12 ± 0.11 | 3.1 ± 0.11 | 2.35 ± 0.12 | 3.14 ± 0.11
VADAKQLGEWAGLGKID [RPS12] | 3.67 ± 0.28 |  | 3.46 ± 0.24 | 3.35 ± 0.13
KSVLGDGKKHSVFYTIL [RPO31] | 2.19 ± 0.087 | 2.42 ± 0.085 | 3.02 ± 0.08 | 2.1 ± 0.087
FTFGLTVVQVYDNGQVF [RPP0] | 1.26 ± 0.09 | 1.3 ± 0.1 | 1.36 ± 0.28 | 1.39 ± 0.16
VDAGIALNSMCASIPIA [RRP46] | 1.65 ± 0.12 | 1.63 ± 0.12 | 1.71 ± 0.15 | 1.66 ± 0.16
LPLQPIEIDYTVRVDKA [SNF12] | 2.39 ± 0.061 | 2.19 ± 0.055 | 2.08 ± 0.064 | 2.27 ± 0.045
TKRESLNARMFLKYYGA [SIR2] | 2.98 ± 0.11 | 2.9 ± 0.098 | 3.14 ± 0.11 | 2.6 ± 0.1
AARYDYAVAEQCPVKSA [QCR2] |  |  |  | 1.88 ± 0.065
PVSTASYRLLPQINILQ [RPC40] | 1.61 ± 0.053 | 1.66 ± 0.05 | 1.63 ± 0.07 | 1.97 ± 0.051
ERKRKSVRGAIVGPDLA [RPS6A] | 3.38 ± 0.091 | 3.34 ± 0.075 | 3.33 ± 0.055 | 3.01 ± 0.13
RFELHGDMTNSDAQSNL [REC8] | 2.93 ± 0.27 | 3.58 ± 0.13 | 2.9 ± 0.17 | 3.22 ± 0.095
ELTKTKSSLYSAQDLLD [YIL149C/MLP2] | 2.67 ± 0.05 | 2.84 ± 0.05 | 2.6 ± 0.07 | 2.83 ± 0.029
QRTTTGARVFGALKGAS [RPL5] | 2.88 ± 0.2 | 2.52 ± 0.2 |  | 3.05 ± 0.16
GALKGASDGGLYVPHSE [RPL5] | 1.91 ± 0.083 | 1.88 ± 0.073 | 2.83 ± 0.088 | 2.67 ± 0.052
PVSVSRIARALKQEGAA [RPL18A] | 3.36 ± 0.22 | 2.83 ± 0.11 | 2.96 ± 0.12 | 3.3 ± 0.057
NQSAYEWNGKSFQKKSN [ISW2] | 3.16 ± 0.11 | 3.12 ± 0.17 | 3.09 ± 0.064 | 2.99 ± 0.13
FSFTEPAQKDSSVVSEP [YOR098C/NUP1] | 3.02 ± 0.097 | 3.11 ± 0.1 | 2.81 ± 0.12 | 3.26 ± 0.094
GRGTLFVRGDSKIFRFQ [RPL24A] | 1.58 ± 0.05 | 1.74 ± 0.076 | 1.95 ± 0.087 | 2.21 ± 0.065
FSTNVKDEIVLSGNSVE [RPL9A] | 2.03 ± 0.13 | 2.18 ± 0.13 | 2.34 ± 0.13 | 2.59 ± 0.054
KERSDGKRHIFDVNTLC [CDC53] | 1.27 ± 0.052 | 1.76 ± 0.062 | 1.26 ± 0.13 | 1.92 ± 0.085
SFLSKHALYLAPSGIRM [SSN2] | 2.12 ± 0.067 | 1.56 ± 0.059 | 1.46 ± 0.12 | 2.19 ± 0.086
APEKDIWVGEWKEVLAH [RPO31] | 2.47 ± 0.1 | 2.17 ± 0.082 | 2.16 ± 0.12 | 2.51 ± 0.062
EVDEKPTETYSDVGGLD [RPT5] | 3.35 ± 0.082 | 3.3 ± 0.07 | 3.16 ± 0.058 | 3.23 ± 0.059
QVVVDAITNTGPREDTT [RPS5] | 2.95 ± 0.064 | 2.95 ± 0.058 | 2.82 ± 0.064 | 2.73 ± 0.042
